Patent US20140017235A1 (published 2014)

Target: T1, human NGF (human, UniProt P01138 122-241)
T1 construct: also called hNGF; nerve growth factor
Assay: BIAcore SPR screening, Fab over immobilized human NGF
Procedure: Affinities of anti-NGF Fabs and monoclonal antibodies were determined using the BIAcore3000™ surface plasmon resonance (SPR) system (BIAcore, INC, Piscaway N.J.). CM5 chips were activated with N-ethyl-N′-(3-dimethylaminopropyl)-carbodiinide hydrochloride (EDC) and N-hydroxysuccinimide (NHS) according to the supplier's instructions. Human NGF was diluted into 10 mM sodium acetate pH 4.0 and injected over the activated chip at a concentration of 0.005 mg/mL. Using variable flow time across the individual chip channels, two ranges of antigen density were achieved: 100-200 response units (RU) for detailed kinetic studies and 500-600 RU for screening assays. The chip was blocked with ethanolamine. […] HBS-EP buffer (0.01M HEPES, pH 7.4, 0.15 NaCl, 3 mM EDTA, 0.005% Surfactant […]) was used as running buffer for all the BIAcore assays.

T1 sequence (P01138 122-241 limits assumed): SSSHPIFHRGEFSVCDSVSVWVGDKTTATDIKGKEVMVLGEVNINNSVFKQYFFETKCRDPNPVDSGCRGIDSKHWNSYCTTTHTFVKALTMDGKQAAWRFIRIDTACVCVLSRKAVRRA

koff: 0.0001 s⁻¹
B1: H19-L129 (Fab, V domains shown)
VH: QVQLQESGPGLVKPSETLSLTCTVSGFSLIGYDLNWIRQPPGKGLEWIGIIWGDGTTDYNSAVKSRVTISKDTSKNQFSLKLSSVTAADTAVYYCARGGYYYGTSYYFDYWGQGTLVTVS
VL: DIQMTQSPSSLSASVGDRVTITCRASQSISNNLNWYQQKPGKAPKLLIYYTSRFHSGVPSRFSGSGSGTDFTFTISSLQPEDIATYYCQQSKTLPYTFGQGTKLEIKR
notes: E. coli Fab with human Ckappa and human IgG2a CH1; also called H19-L129 Fab; Fab H19-L129
